No end group written: not given here.
Experiments:
splitNanoluc1-8 = molecular target: T1, splitNanoluc1-8 (Oplophorus gracilirostris, UniProt Q9GV45, A31E/A60N/A81I/D135N/F58L/F95D/G42A/G62A/G78A/G94A/G98A/H120P/I103V/I117V/I134L/K70R/L54V/L73R/L99Q/M102E/N171T/P142E/Q151K/Q38E/Q45L/V71I/Y165I); assay: Complementation assay of split Nanoluc using mRNA display (pull-down with biotinylated splitNanoluc1-8, qPCR); assay type: binding; details: for Recovered nucleic acid amount (molecules): 33 nM Display molecule + 1 μM biotinylated splitNanoluc1-8, room temperature 1 hour, streptavidin pull-down, TEV elution, qPCR; for Recovery rate (%): apparent recovery rate corrected with display efficiency; for Apparent recovery rate (%): recovered/input nucleic acid amount
T1 construct: made in house
T1 sequence (Q9GV45 other isoform, or with tags, fused parts or gaps with the stated changes): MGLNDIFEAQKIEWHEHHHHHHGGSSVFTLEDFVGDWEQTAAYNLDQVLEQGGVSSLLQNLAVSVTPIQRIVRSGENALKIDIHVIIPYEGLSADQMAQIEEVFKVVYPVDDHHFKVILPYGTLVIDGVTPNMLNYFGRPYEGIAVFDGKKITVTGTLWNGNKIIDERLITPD
Description: Thus, each binding ability of splitNanoluc-9 (SEQ ID NO: 66), splitNanoluc-10 (SEQ ID NO: 67), and splitNanoluc9-10 fusion peptide (SEQ ID NO: 65) to splitNanoluc1-8 (SEQ ID NO: 85) was evaluated.
Display molecules in which mRNA and a peptide are linked were prepared, and the recovery rate with biotinylated splitNanoluc1-8 was examined.

[1] = system: anti-ubiquitin antibodies (Mouse IgG1 monoclonal antibody; clone name FK2); assay: Complementation assay of splitUbiquitin using mRNA display (anti-ubiquitin antibody beads, qPCR); assay type: binding
Description: As described above, screening a library for a candidate molecule capable of forming a complex with a plurality of target molecules requires a system that suppresses the recovery rate of a test molecule that forms a complex with only one target molecule. […] Ubiquitin I13A variants were used in the experiment. In this Example, the ubiquitin N-terminal fragment to which a GS linker is attached at the C-terminus is referred to as splitUb(N), the ubiquitin C-terminal fragment to which a GS linker is attached at the C-terminus is referred to as splitUb(C), and the protein in which splitUb(N) and splitUb(C) are linked by a GSGS linker and to which a GS linker is attached at the C-terminus is referred to as splitUb(N-C).
To simultaneously evaluate the interactions of the ubiquitin N-terminal fragment and the C-terminal fragment when they are independent, the conditions of mixing the display molecule of splitUb(N) and the display molecule of splitUb(C) at 1: 1 were reacted in the same way.

Substance | Recovered nucleic acid amount (molecules) (splitNanoluc1-8) | Recovery rate (%) (splitNanoluc1-8) | Apparent recovery rate (%) (splitNanoluc1-8) | Recovered nucleic acid amount (molecules) ([1]; anti-ubiquitin antibody (FK2) magnetic beads, room temperature 1 hour, qPCR) | Recovery rate (%) ([1]; apparent recovery rate corrected with display efficiency) | Apparent recovery rate (%) ([1]; recovered/input nucleic acid amount)
splitNanoluc9-10: mRNA Display molecule of Nanoluc 9th and 10th strands linked by GS linker, with TEV sequence (SEQ ID NO: 65) (MGSMLFRVTINSGGGSGGGGSGVSGWRLFKKISGSGSGSGSENLYFQGKK; also: mRNA display conjugate) | 3.45E+09 | 33.155 | 12.632 |  |  | 
splitNanoluc-9: mRNA Display molecule of Nanoluc 9th strand with GS linker and TEV sequence (SEQ ID NO: 66) (MGSMLFRVTINSGSGSGSGSENLYFQGKK; also: mRNA display conjugate) | 2.53E+06 | 0.049 | 0.008 |  |  | 
splitNanoluc-10: mRNA Display molecule of Nanoluc 10th strand with GS linker and TEV sequence (SEQ ID NO: 67) (MVSGWRLFKKISGSGSGSGSENLYFQGKK; also: mRNA display conjugate) | 5.04E+06 | 0.016 | 0.011 |  |  | 
splitUb (N): mRNA Display molecule of ubiquitin (I13A) N-terminal fragment with GS linker (SEQ ID NO: 45) (MMQIFVKTLTGKTATLEVEPSDTIENVKAKIQDKEGIPGSGSGSGSKK; also: mRNA display linkage) |  |  |  | 1.63E+10 | 1.040 | 0.931
